These results are taken from patent US20200332003A1.

“And” between values parts separate entries of the source, which are not always exact repeats. Equal entries are not always repeated. Some results are limits rather than exact numbers.

One assay concerns the target TRBV9 + TRAV26 antigen. Put plainly: BLI (OctetRed 96), antigen immobilized on AR2G sensor, antibody 126-2 nM, 1:1 model.
The target in the next assay is TRBV9 + TRAV38 antigen. The assay is described as above.
Assay [1] concerns the target T cell receptor with a beta-chain of the TRBV9 family on human peripheral blood T lymphocytes (human). Put plainly: flow cytometry of human blood mononuclear cells, FITC-labelled antibody at 27 ng per test (lower plot), co-stained with anti-CD3-eFluor 405 [lower plot].
The target is the same in assay [2]. In words: flow cytometry of human blood mononuclear cells, FITC-labelled antibody at 270 ng per test (upper plot), co-stained with anti-CD3-eFluor 405 [upper plot]. (In general: In flow cytometry, cells or beads pass a laser one at a time.)
The target is the same in assay [3]. Put plainly: cell sorting with the FITC-labelled antibody, then sequencing of TCR beta-chains.
Assay [4] shares this target. In words: flow cytometry, FITC-labelled antibody at 5 ng/ul and 0.5 ng/ul on human mononuclear blood cells.

B1: anti-TRBV9-1 monoclonal antibody (antibody, human IgG1, kappa, V domains shown)
VH: QIQLVQSGPELREPGESVKLSCKASGYTFTDYLVHWVKQAPGKGLKWMGWINTYTGTPTYADDFEGRFVFSLEASASTANLQISNLKNEDTATYFCARSWRRGLRGLGFDYWGQGVFVTVSS
VL: DVQMTQSPYNLAASPGESVSINCKASKSINKYLAWYQQKPGKPNKLLIYDGSTLQSGIPSRFSGSGSGTDFTLTIRGLEPEDFGLYYCQQHNEYPPTFGAGTKLELKR
Usually Kd stands for the constant that tells how readily two partners part at equilibrium. One may read the koff as a measure of how fast the partners let go of each other. A word on the kon: it is the second-order rate constant of association. With B1, in the assay with TRBV9 + TRAV26 antigen, the Kd was 0.22 nM and 0.204 nM and 0.278 nM; the koff is 0.000114 s⁻¹ and 0.000113 s⁻¹ and 0.000183 s⁻¹; the kon was 559000 M⁻¹ s⁻¹ and 515000 M⁻¹ s⁻¹ and 658000 M⁻¹ s⁻¹. Further, in the assay with TRBV9 + TRAV38 antigen, the Kd was 0.365 nM and 0.529 nM and 0.414 nM; the koff was 0.000205 s⁻¹ and 0.000196 s⁻¹ and 0.000183 s⁻¹; the kon is 562000 M⁻¹ s⁻¹ and 371000 M⁻¹ s⁻¹ and 441000 M⁻¹ s⁻¹. The % of cells in the CD3+TRBV9+ gate (small rectangle) in assay [1] amounted to 3%. In assay [2], the % of cells in the CD3+TRBV9+ gate (small rectangle) was 1.6%.

B2: anti-TRBV9-2 monoclonal antibody (antibody, human IgG1, kappa, V domains shown)
VH: QIQLVQSGPELREPGESVKLSCKASGYTFTDYLVHWVKQAPGKGLKWMGWINTYTGTPTYADDFEGRFVFSLEASASTANLQISNLKNEDTATYFCARSWRRGLRGIGFDYWGQGVFVTVSS
VL: DVQMTQSPYNLAASPGESVSINCKASKSINKYLAWYQQKPGKPNKLLIYDGSTLQSGIPSRFSGSGSGTDFTLTIRGLEPEDFGLYYCQQHNEYPPTFGAGTKLELKR
Molecule B2 had a percent of TCR beta-chain sequences of the sorted CD3+TRBV9+ fraction that belong to the TRBV9 family in assay [3] of 90%. The kon with TRBV9 + TRAV26 antigen was 447000 M⁻¹ s⁻¹ and 381000 M⁻¹ s⁻¹. Besides, in the assay with TRBV9 + TRAV38 antigen, the Kd is less than 0.001 nM; the koff is less than 1e-07 s⁻¹; the kon was 397000 M⁻¹ s⁻¹ and 289000 M⁻¹ s⁻¹. The molecule also came in with a percent of the CD3-positive fraction stained in assay [4] of 2.9%.

B3: anti-TRBV9-3 monoclonal antibody (antibody, human IgG1, kappa, V domains shown)
VH: QIQLVQSGPELREPGESVKLSCKASGYTFTDYLVHWVKQAPGKGLKWMGWINTYTGTPTYADDFEGRFVFSLEASASTANLQISNLKNEDTATYFCARSWRRGIRGLGFDYWGQGVFVTVSS
VL: DVQMTQSPYNLAASPGESVSINCKASKSINKYLAWYQQKPGKPNKLLIYDGSTLQSGIPSRFSGSGSGTDFTLTIRGLEPEDFGLYYCQQHNEYPPTFGAGTKLELKR
As for B3, the Kd is 0.319 nM and 0.582 nM with TRBV9 + TRAV26 antigen; 0.311 nM and 0.4 nM with TRBV9 + TRAV38 antigen. Also, the koff in the assay with TRBV9 + TRAV26 antigen is 9.16e-05 s⁻¹ and 9.8e-05 s⁻¹; with TRBV9 + TRAV38 antigen it was 9.61e-05 s⁻¹ and 9.16e-05 s⁻¹. The kon was 287000 M⁻¹ s⁻¹ and 168000 M⁻¹ s⁻¹ in the assay with TRBV9 + TRAV26 antigen; 309000 M⁻¹ s⁻¹ and 229000 M⁻¹ s⁻¹ with TRBV9 + TRAV38 antigen. For the same molecule, the % of cells in the CD3+TRBV9+ gate (small rectangle) in assay [1] worked out at 2.6%; in assay [2] it was 3%.

B4: anti-TRBV9-4 monoclonal antibody (antibody, human IgG1, kappa, V domains shown)
VH: QIQLVQSGPELREPGESVKLSCKASGYTFTDYLVHWVKQAPGKGLKWMGWINTYTGTPTYADDFEGRFVFSLEASASTANLQISNLKNEDTATYFCARSWRRGIRGIGFDYWGQGVFVTVSS
VL: DVQMTQSPYNLAASPGESVSINCKASKSINKYLAWYQQKPGKPNKLLIYDGSTLQSGIPSRFSGSGSGTDFTLTIRGLEPEDFGLYYCQQHNEYPPTFGAGTKLELKR
As to B4, in the assay with TRBV9 + TRAV26 antigen, the Kd was less than 0.001 nM; the koff was less than 1e-07 s⁻¹; the kon is 865000 M⁻¹ s⁻¹ and 579000 M⁻¹ s⁻¹. In the assay with TRBV9 + TRAV38 antigen, the Kd was less than 0.001 nM; the koff was less than 1e-07 s⁻¹; the kon is 713000 M⁻¹ s⁻¹ and 476000 M⁻¹ s⁻¹. The % of cells in the CD3+TRBV9+ gate (small rectangle) in assay [1] was 2.4%. Moreover, the % of cells in the CD3+TRBV9+ gate (small rectangle) in assay [2] stood at 2.9%.
